According to US20130216529A1 (TALIGEN THERAPEUTICS, published 2013):

Assays:
[1] = target: T1, recombinant human factor B (human, UniProt P00751 26-764, biotinylated (EZ-link) in the Octet assay only; sites not stated); assay: dilution ELISA, factor B coated at 25 ng/well [upper panel]
T1 construct: also called purified factor B protein

[2] = target: T1, recombinant human factor B; assay: dilution ELISA, factor B coated at 50 ng/well [upper panel]
[3] = target: T1, recombinant human factor B; assay: BLI (ForteBio Octet), biotinylated human factor B on neutravidin sensors, Fab' at 1e-7 M
Experimental: (§1) Binding kinetics of the Fab′ fragments were analyzed using a FortéBio® Octet® biosensor (FortéBio, Inc., Menlo Park, Calif.). Recombinant human factor B was biotinylated with the EZ-link biotinylation system (Pierce Biotechnology, Rockford, Ill.) according to the manufacturer's instructions. The antigen was then coupled to neutravidin-coated sensors (FortéBio, Inc., Menlo Park, Calif.) according to the manufacturer's instructions. Fab′ binding was then monitored in real time using bio-layer interferometry analysis and software provided by the manufacturer. Antigen binding affinities were calculated for the tested Fab′ fragments based on the measured association (“Kassoc”) and dissociation (“Kdissoc”) constants. Preferably humaneered antibodies or antibody fragments with equilibrium dissociation constants the same or […] than that of the reference antibody (i.e., mAb 1379) or antibody fragment (i.e., TA10).
(§2) Fully humaneered Fab′ fragments were isolated by colony lift binding assays and confirmed as factor B binders by ELISA. Humaneered Fab′ fragments showing strong positive signals by ELISA were purified and further characterized in comparison to the reference Fab′ fragment TA10, which has murine V-region sequences from mAb 1379. Kinetics of Fab′ fragment binding to recombinant human factor B were analyzed with the FortéBio® Octet® system by bio-layer interferometry, providing real time label-free monitoring of protein-protein interactions. Measured association (Kassoc) and dissociation (Kdissoc) constants, and calculated equilibrium dissociation constants (KD=Kdissoc/Kassoc) (i.e., binding affinity), are shown in Table 1.

[4] = target: T1, recombinant human factor B; assay: BLI (ForteBio Octet), biotinylated human factor B on neutravidin sensors, Fab' at 1e-7 M; KD = Kdissoc/Kassoc
Experimental: as §1, §2

[5] = target: T1, recombinant human factor B; assay: dilution ELISA, factor B coated at 25 ng/well [lower panel]
Experimental: (§3) Next, the ability of the cloned VH and Vκ sequences to bind factor B was assayed. The cloned VH- and Vκ-regions were expressed in bacteria as Fab′ fragments, purified, and tested for binding to factor B in a dilution ELISA. FIG. 4 compares factor B binding of the cloned Fab′ TA003 to that of a Fab′ derived from mAb1379. As expected, both the cloned Fab′ and murine Fab produced binding curves that were dependent on both antibody and antigen concentration.

[6] = target: T1, recombinant human factor B; assay: dilution ELISA, factor B coated at 50 ng/well [lower panel]
Experimental: as §3

[7] = target: T1, recombinant human factor B; assay: dilution ELISA, factor B coated at 100 ng/well [lower panel]
Experimental: as §3

T1 sequence (P00751 26-764): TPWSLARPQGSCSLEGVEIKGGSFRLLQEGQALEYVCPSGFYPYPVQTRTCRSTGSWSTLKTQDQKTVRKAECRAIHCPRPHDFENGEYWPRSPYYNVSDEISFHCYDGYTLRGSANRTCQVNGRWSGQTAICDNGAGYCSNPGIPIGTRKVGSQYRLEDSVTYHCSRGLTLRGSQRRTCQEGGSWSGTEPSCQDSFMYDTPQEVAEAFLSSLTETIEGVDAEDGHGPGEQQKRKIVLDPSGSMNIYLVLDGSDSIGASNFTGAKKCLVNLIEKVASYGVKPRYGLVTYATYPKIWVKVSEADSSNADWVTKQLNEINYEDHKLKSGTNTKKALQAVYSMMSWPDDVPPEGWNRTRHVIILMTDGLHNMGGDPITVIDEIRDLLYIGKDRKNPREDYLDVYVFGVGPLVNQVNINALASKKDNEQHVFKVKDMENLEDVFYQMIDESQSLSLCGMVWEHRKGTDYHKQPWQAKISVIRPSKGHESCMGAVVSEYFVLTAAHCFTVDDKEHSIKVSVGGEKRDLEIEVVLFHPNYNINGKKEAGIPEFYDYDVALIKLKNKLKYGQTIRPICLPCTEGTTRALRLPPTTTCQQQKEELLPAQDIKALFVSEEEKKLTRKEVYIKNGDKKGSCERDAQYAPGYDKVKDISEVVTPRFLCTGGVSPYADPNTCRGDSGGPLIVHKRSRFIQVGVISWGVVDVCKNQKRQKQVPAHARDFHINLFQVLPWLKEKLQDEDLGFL

Row | koff [3] | Kd [4] | Binder | further results
1 | – | – | cloned Fab' TA003 (Fab, V domains shown, No sentence ties the name TA003 to these numbers directly; also called the cloned Fab'; purified Fab' protein (cloned V-regions from the hybridoma producing mAb 1379)) VH: EVQLQQSGPELVKPGASVKIPCKASGYTFTDYNMDWVKQSHGKSLEWIGDINPNNGGTIYNQKFKGKATLTVDKSSSTAYMELRSLTSEDTAVYYCARGYYSNSAWFAYWGQGTLVTVSA VL: DIVMSQSPSSLAVSAGEKVTMSCKSSQSLLNSRTRKNYLAWYQQKPGQSPKLLIYWASTRESGVPDRFTGSGSGTDFTLTISSVQAEDLAVYYCKQSYNLPWTFGGGTKLEIKR | EC50 (read off the curve) [1]: ~40 nM; EC50 (read off the curve) [2]: ~20 nM
2 | 0.00296 s⁻¹ | 6.55 nM | TA10 reference Fab' (Fab, V domains shown) VH: EVQLQQSGPELVKPGASVKIPCKASGYTFTDYNMDWVKQSHGKSLEWIGDINPNNGGTIYNQKFKGKATLTVDKSSSTAYMELRSLTSEDTAVYYCARGYYSNSAWFAYWGQGTLVTVSS VL: DIVMSQSPSSLAVSAGEKVTMSCKSSQSLLNSRTRKNYLAWYQQKPGQSPKLLIYWASTRESGVPDRFTGSGSGTDFTLTISSVQAEDLAVYYCKQSYNLPWTFGQGTKLEIK | –
3 | – | – | Fab' derived from mAb 1379 by papain digestion (Fab, V domains shown, Papain fragment of the murine IgG1 kappa hybridoma antibody mAb 1379 (ATCC PTA-6230); also called murine Fab) VH: EVQLQQSGPELVKPGASVKIPCKASGYTFTDYNMDWVKQSHGKSLEWIGDINPNNGGTIYNQKFKGKATLTVDKSSSTAYMELRSLTSEDTAVYYCARGYYSNSAWFAYWGQGTLVTVSA VL: DIVMSQSPSSLAVSAGEKVTMSCKSSQSLLNSRTRKNYLAWYQQKPGQSPKLLIYWASTRESGVPDRFTGSGSGTDFTLTISSVQAEDLAVYYCKQSYNLPWTFGGGTKLEIKR | EC50 (read off the curve) [5]: ~30 nM; EC50 (read off the curve) [6]: ~10 nM; EC50 (read off the curve) [7]: ~8 nM
4 | 0.0028 s⁻¹ | 3.73 nM | TA103-2 Fab' (Fab, V domains shown, Humaneered Fab' expressed in E. coli) VH: QVQLVQSGAEVKKPGASVKVSCKASGYSFTDYYMTWVRQAPGQGLEWMGWINPNSGGTKYAQKFQGRVTMTRDTSISTAYMELSRLRSDDTAVYYCARGYYANSAWFAYWGQGTLVTVSS VL: DIVMTQSPDSLAVSLGERATINCKSSQSLLNSRTSKNYLAWYQQKPGQPPKLLIYWASTRESGVPDRFSGSGSGTDFTLTISSLQAEDVAVYYCKQVYNLPWTFGQGTKLEIK | –
5 | 0.00437 s⁻¹ | 5.4 nM | TA102-4 Fab' (Fab, V domains shown, Humaneered Fab' expressed in E. coli) VH: QVQLVQSGAEVKKPGASVKVSCKASGYSFTDYYMTWVRQAPGQGLEWMGWINPNSGGTKYAQKFQGRVTMTRDTSISTAYMELSRLRSDDTAVYYCARGYYANSAWFAYWGQGTLVTVSS VL: DIVMTQSPDSLAVSLGERATINCKSSQSVLNSRNKKNYLAWYQQKPGQPPKLLIYWASTRESGVPDRFSGSGSGTDFTLTISSLQAEDVAVYYCKQVYNLPWTFGQGTKLEIK | kon [3]: 810000 M⁻¹ s⁻¹
6 | 0.00233 s⁻¹ | 4.53 nM | TA101-1 Fab' (Fab, V domains shown, Humaneered Fab' expressed in E. coli) VH: QVQLVQSGAEVKKPGASVKVSCKASGYSFTDYYMTWVRQAPGQGLEWMGWINPNSGGTKYAQKFQGRVTMTRDTSISTAYMELSRLRSDDTAVYYCARGYYANSAWFAYWGQGTLVTVSS VL: DIVMTQSPDSLAVSLGERATINCKSSQSLLNSSTSKNYLAWYQQKPGQPPKLLIYWASTRESGVPDRFSGSGSGTDFTLTISSLQAEDVAVYYCKQVYNLPWTFGQGTKLEIK | –
